Measured values from PMC12153337, “A temperature-driven DNA discrimination strategy to distinguish E. coli DNA and phage 5hmC-modified DNA” (Nucleic Acids Research, 2025).
Where a chain is given by its changes, count along the chain named. Names may count otherwise.

Tests used:
[1] = target: the molecule itself; experiment: native gel or EMSA; native gel electrophoresis of purified DexA after SEC, room temperature
[2] = target: the molecule itself; experiment: SEC; Superdex 200 HiLoad 26/600, PBS buffer, room temperature 22°C; size estimated from the elution volume
[3] = target: the molecule itself; experiment: cryo-EM structure; single-particle cryo-EM, 2D classification of conformers; 5 μM, incubated at 37°C for 1 h
[4] = target: the molecule itself; experiment: SEC-MALS; Superdex 75 10/300 GL, 0.5 ml/min, 25°C

B1: bacteriophage T4 exonuclease DexA (enzyme, UniProt P04536 1-227, looked up)
chain: MFDFIIDFETMGSGEKAAVIDLAVIAFDPNPEVVETFDELVSRGIKIKFDLKSQKGHRLFTKSTIEWWKNQSPEARKNIAPSDEDVSTIDGIAKFNDYINAHNIDPWKSQGWCRGMSFDFPILVDLIRDIQRLNGVSENELDTFKLEPCKFWNQRDIRTRIEALLLVRDMTTCPLPKGTLDGFVAHDSIHDCAKDILMMKYALRYAMGLEDAPSEEECDPLSLPTKR
notes: DexA (dexA gene product), 3'-5' exonuclease of bacteriophage T4, amplified from the T4 genome; 26.0 kDa per monomer; Exists in a dimer-tetramer equilibrium that depends on temperature, so copies is left empty; also called ExoD; wild-type DexA; source: E. coli BL21(DE3), pET46, purified (Ni-NTA, SEC)
stoichiometry N [1]: 4
stoichiometry N [2]: ≥ 2
stoichiometry N [3]: 2

B2: DexA^D181A/S72A (enzyme, bacteriophage T4, UniProt P04536 1-227, looked up)
chain: B1 chain with S72A, D181A
notes: DexA of bacteriophage T4 with D181A and S72A, made by site-directed mutagenesis of the dexA plasmid; Full length is said of the native protein only; the mutant was made from the same plasmid; also called contact 1 mutant; source: E. coli BL21(DE3), pET46, purified (Ni-NTA, SEC)
binding result [4]: binds

B3: DexA^S87A/D90A (enzyme, bacteriophage T4, UniProt P04536 1-227, looked up)
chain: B1 chain with S87A, D90A
notes: DexA of bacteriophage T4 with S87A and D90A, made by site-directed mutagenesis of the dexA plasmid; Full length is said of the native protein only; the mutant was made from the same plasmid; also called dimeric mutant; contact 2 mutant; source: E. coli BL21(DE3), pET46, purified (Ni-NTA, SEC)
stoichiometry N [4]: 2
